Test results taken from paper PMC4899250 (Journal of neurochemistry, 2016).

Molecular target: the molecule itself
Assay: native MS

Protein: Ac-AGIGDTPSLEDEAAGHVTQARMVSKSKDGTGSDDKKAKG-NH2 [tau^106-144]
- stoichiometry N: 2
